According to patent CN113667015A:

Target: T1, 人PSGL-1 (on THP-1 cells) (human) (UniProt Q14242)
T1 sequence (looked up): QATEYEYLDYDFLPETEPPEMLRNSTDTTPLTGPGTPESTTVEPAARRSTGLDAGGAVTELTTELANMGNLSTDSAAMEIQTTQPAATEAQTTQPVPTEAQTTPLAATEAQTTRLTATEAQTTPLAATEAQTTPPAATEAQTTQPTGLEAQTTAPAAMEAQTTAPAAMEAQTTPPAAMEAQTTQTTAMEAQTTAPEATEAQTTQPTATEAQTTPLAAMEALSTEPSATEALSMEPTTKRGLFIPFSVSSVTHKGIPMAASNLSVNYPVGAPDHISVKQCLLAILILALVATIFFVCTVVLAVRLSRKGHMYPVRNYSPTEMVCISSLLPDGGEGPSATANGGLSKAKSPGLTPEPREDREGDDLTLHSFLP
Assay: flow cytometry competition on THP-1 cells; competitor recombinant human P-selectin/CD62P Fc chimera; antibody 10 μg/mL

Binder | fold decrease of CD62P+CD45+/总CD45+细胞 at 10μg/mL
抗体Rh001-6 (antibody, V domains shown) VH: QVQLLESGPGLVKPSETLSLSCTVSGGSISGYYYWSWIRQPPGKGLEWIGGIYGTSGSAYYNPSLKSRVTISKDTSKNQFSLKLSSVTAADTAVYYCTRHASGGANTDLWGQGTLVTVSS VL: DIQMTQSPLSLPVTPGQPASISCRSSQSLVHSDGKTYLNWLQQKPGQPPRRLIYQVSNRDSGVPDRFSGSGAGTDFTLKISRVEAEDVGVYYCGQGTNVPFTFGPGTKVEIK | 2 倍
抗体Rh001-22 (antibody, V domains shown) VH: QVQLLESGPGLVKPSETLSLTCAVSGGSLTSHYWGWIRQPPGKGLEWVGSISGSSGNPEYNPSLKSRATISRDTSENQFSLRVNSVTAADTAVYHCVRWQRLENYFDSWGQGTLVTVSS VL: DIQMTQPPSVSGDPGQRVTISCTGSTSNIGTYYVSWYRQVPGTVPKLLIYENNKRPSGVSDRFSGSKSGTSASLTITGLQPGDEADYYCLAWDDGLSAGLFGGGTKVEIK | 1.5 倍
